In the supplement of paper PMC9112550, “Optimization of the antimicrobial peptide Bac7 by deep mutational scanning” (BMC Biology, 2022):

system: Escherichia coli TOP10; assay: shrunken log2 fold change of peptide-encoding DNA abundance (4.5 h post-induction vs induction); higher = less antimicrobial activity (less host growth inhibition); settings: time post-induction: 4.5 h; library: site-saturation at positions 5, 18, 19, 20
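Note: peptides expressed intracellularly from a pBAD plasmid library in pooled LB shake-flask culture, induced with 0.3% L-arabinose, DNA abundance read by NGS, three biological replicates, DESeq2 with apeglm shrinkage.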

| Sequence | shrunken log2 fold change |
| --- | --- |
| RRIRTRPPRLPRPRPRPQKEPRP | 0.0092 |
| RRIRTRPPRLPRPRPRPQKLPRP | -0.364 |
| RRIRTRPPRLPRPRPRPQKSPRP | -0.0823 |
| RRIRTRPPRLPRPRPRPQLEPRP | 0.341 |
| RRIRTRPPRLPRPRPRPQLLPRP | 0.0259 |
| RRIRTRPPRLPRPRPRPQLNPRP | -0.33 |
| RRIRTRPPRLPRPRPRPQMQPRP | -0.0728 |
| RRIRTRPPRLPRPRPRPQMSPRP | 0.056 |
| RRIRTRPPRLPRPRPRPQPCPRP | -0.0212 |
| RRIRTRPPRLPRPRPRPQPGPRP | 0.165 |
| RRIRTRPPRLPRPRPRPQPYPRP | -0.322 |
| RRIRTRPPRLPRPRPRPQQQPRP | -0.0474 |
| RRIRTRPPRLPRPRPRPQQVPRP | -0.231 |
| RRIRTRPPRLPRPRPRPQRLPRP | -0.223 |
| RRIRTRPPRLPRPRPRPQSCPRP | 0.057 |
| RRIRTRPPRLPRPRPRPQSIPRP | -0.125 |
| RRIRTRPPRLPRPRPRPQTKPRP | 0.0553 |
| RRIRTRPPRLPRPRPRPQTLPRP | -0.278 |
| RRIRTRPPRLPRPRPRPQTSPRP | 0.413 |
| RRIRTRPPRLPRPRPRPQWGPRP | -0.0978 |
| RRIRTRPPRLPRPRPRPQWMPRP | -0.291 |
| RRIRTRPPRLPRPRPRPQWTPRP | -1.27 |

| Sequence | shrunken log2 fold change |
| --- | --- |
| RRIRTRPPRLPRPRPRPQYQPRP | -0.502 |
| RRIRTRPPRLPRPRPRPQYYPRP | -0.266 |
| RRIRTRPPRLPRPRPRPRFGPRP | 0.319 |
| RRIRTRPPRLPRPRPRPRGDPRP | 0.409 |
| RRIRTRPPRLPRPRPRPRHEPRP | -0.13 |
| RRIRTRPPRLPRPRPRPRMQPRP | 0.0874 |
| RRIRTRPPRLPRPRPRPRNLPRP | -0.218 |
| RRIRTRPPRLPRPRPRPRPCPRP | -0.0153 |
| RRIRTRPPRLPRPRPRPRPMPRP | 0.184 |
| RRIRTRPPRLPRPRPRPRQAPRP | 0.171 |
| RRIRTRPPRLPRPRPRPRQYPRP | -0.302 |
| RRIRTRPPRLPRPRPRPRRHPRP | 0.0424 |
| RRIRTRPPRLPRPRPRPRSSPRP | 0.0755 |
| RRIRTRPPRLPRPRPRPRTNPRP | -0.192 |
| RRIRTRPPRLPRPRPRPRTQPRP | 0.172 |
| RRIRTRPPRLPRPRPRPRWHPRP | 0.133 |
| RRIRTRPPRLPRPRPRPRWQPRP | 0.47 |
| RRIRTRPPRLPRPRPRPRYQPRP | -0.0799 |
| RRIRTRPPRLPRPRPRPRYWPRP | -0.156 |
| RRIRTRPPRLPRPRPRPSCRPRP | -0.219 |
| RRIRTRPPRLPRPRPRPSFQPRP | -0.427 |
| RRIRTRPPRLPRPRPRPSGSPRP | 0.204 |

| Sequence | shrunken log2 fold change |
| --- | --- |
| RRIRTRPPRLPRPRPRPSIPPRP | -0.356 |
| RRIRTRPPRLPRPRPRPSKIPRP | -0.24 |
| RRIRTRPPRLPRPRPRPSLPPRP | -0.0317 |
| RRIRTRPPRLPRPRPRPSMYPRP | -0.39 |
| RRIRTRPPRLPRPRPRPSNMPRP | -0.851 |
| RRIRTRPPRLPRPRPRPSQIPRP | -0.0567 |
| RRIRTRPPRLPRPRPRPSRMPRP | -0.0328 |
| RRIRTRPPRLPRPRPRPSRSPRP | -0.0434 |
| RRIRTRPPRLPRPRPRPSSLPRP | -0.0765 |
| RRIRTRPPRLPRPRPRPSSSPRP | -0.164 |
| RRIRTRPPRLPRPRPRPSWHPRP | -0.23 |
| RRIRTRPPRLPRPRPRPSWNPRP | -0.34 |
| RRIRTRPPRLPRPRPRPSWPPRP | 0.0669 |
| RRIRTRPPRLPRPRPRPSYYPRP | -0.786 |
| RRIRTRPPRLPRPRPRPTAPPRP | 0.159 |
| RRIRTRPPRLPRPRPRPTDSPRP | -0.106 |
| RRIRTRPPRLPRPRPRPTDVPRP | 0.284 |
| RRIRTRPPRLPRPRPRPTEIPRP | -0.119 |
| RRIRTRPPRLPRPRPRPTFNPRP | -0.199 |
| RRIRTRPPRLPRPRPRPTFQPRP | 0.0412 |
| RRIRTRPPRLPRPRPRPTGYPRP | 0.000642 |
| RRIRTRPPRLPRPRPRPTHIPRP | -0.308 |

| Sequence | shrunken log2 fold change |
| --- | --- |
| RRIRTRPPRLPRPRPRPTIEPRP | -0.297 |
| RRIRTRPPRLPRPRPRPTIHPRP | -0.712 |
| RRIRTRPPRLPRPRPRPTIQPRP | -0.0327 |
| RRIRTRPPRLPRPRPRPTKAPRP | 0.249 |
| RRIRTRPPRLPRPRPRPTKEPRP | -0.0327 |
| RRIRTRPPRLPRPRPRPTKKPRP | 0.0786 |
| RRIRTRPPRLPRPRPRPTKRPRP | 0.139 |
| RRIRTRPPRLPRPRPRPTLTPRP | 0.0461 |
| RRIRTRPPRLPRPRPRPTNRPRP | 0.0146 |
| RRIRTRPPRLPRPRPRPTPPPRP | 0.589 |
| RRIRTRPPRLPRPRPRPTQEPRP | -0.0182 |
| RRIRTRPPRLPRPRPRPTQSPRP | 0.311 |
| RRIRTRPPRLPRPRPRPTQTPRP | -0.0408 |
| RRIRTRPPRLPRPRPRPTSSPRP | 0.113 |
| RRIRTRPPRLPRPRPRPTSTPRP | -0.0605 |
| RRIRTRPPRLPRPRPRPTSWPRP | 0.139 |
| RRIRTRPPRLPRPRPRPTSYPRP | -0.268 |
| RRIRTRPPRLPRPRPRPTTIPRP | -0.111 |
| RRIRTRPPRLPRPRPRPTVPPRP | 0.0189 |
| RRIRTRPPRLPRPRPRPTVQPRP | 0.0928 |
| RRIRTRPPRLPRPRPRPTWCPRP | -0.178 |
| RRIRTRPPRLPRPRPRPVAKPRP | 0.111 |

| Sequence | shrunken log2 fold change |
| --- | --- |
| RRIRTRPPRLPRPRPRPVAMPRP | -0.0639 |
| RRIRTRPPRLPRPRPRPVCDPRP | 0.0701 |
| RRIRTRPPRLPRPRPRPVDGPRP | 0.0538 |
| RRIRTRPPRLPRPRPRPVDVPRP | -0.236 |
| RRIRTRPPRLPRPRPRPVGCPRP | 0.304 |
| RRIRTRPPRLPRPRPRPVGQPRP | 0.00905 |
| RRIRTRPPRLPRPRPRPVGTPRP | -0.201 |
| RRIRTRPPRLPRPRPRPVHFPRP | 0.218 |
| RRIRTRPPRLPRPRPRPVHRPRP | -0.0993 |
| RRIRTRPPRLPRPRPRPVKAPRP | 0.0375 |
| RRIRTRPPRLPRPRPRPVMDPRP | -0.478 |
| RRIRTRPPRLPRPRPRPVMEPRP | 0.187 |
| RRIRTRPPRLPRPRPRPVMPPRP | 0.372 |
| RRIRTRPPRLPRPRPRPVNKPRP | 0.0243 |
| RRIRTRPPRLPRPRPRPVPGPRP | 0.151 |
| RRIRTRPPRLPRPRPRPVPIPRP | -0.0974 |
| RRIRTRPPRLPRPRPRPVPVPRP | 0.0547 |
| RRIRTRPPRLPRPRPRPVQAPRP | 0.0641 |
| RRIRTRPPRLPRPRPRPVQNPRP | 0.138 |
| RRIRTRPPRLPRPRPRPVSQPRP | 0.0169 |
| RRIRTRPPRLPRPRPRPVWNPRP | -0.117 |
